Values of other authors as cited in publication PMC5694535.
Read-outs that look alike come from different tables or passages of the source.

Columns and labels:
Clathrin heavy chain TD [1] = target: Clathrin heavy chain TD (UniProt P11442)
Clathrin heavy chain TD [2] = target: Clathrin heavy chain TD (UniProt P11442); remark: listed apart in the source
AP2 beta2 appendage [3] = target: AP2 beta2 appendage (UniProt P63010)
AP2 beta2 appendage [4] = target: AP2 beta2 appendage (UniProt P63010); experiment: ITC

Sequence of UniProt P11442 (P11442 1-363): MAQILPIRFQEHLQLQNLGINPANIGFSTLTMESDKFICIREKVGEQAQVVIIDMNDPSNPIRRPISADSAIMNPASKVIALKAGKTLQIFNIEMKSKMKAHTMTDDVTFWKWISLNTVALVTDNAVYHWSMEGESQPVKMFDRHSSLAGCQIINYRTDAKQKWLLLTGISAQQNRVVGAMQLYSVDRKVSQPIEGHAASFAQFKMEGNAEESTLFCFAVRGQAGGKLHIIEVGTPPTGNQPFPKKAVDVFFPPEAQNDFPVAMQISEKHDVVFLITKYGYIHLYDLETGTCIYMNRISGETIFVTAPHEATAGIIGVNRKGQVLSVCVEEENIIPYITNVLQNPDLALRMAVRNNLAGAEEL
Sequence of UniProt P63010 (P63010 701-937): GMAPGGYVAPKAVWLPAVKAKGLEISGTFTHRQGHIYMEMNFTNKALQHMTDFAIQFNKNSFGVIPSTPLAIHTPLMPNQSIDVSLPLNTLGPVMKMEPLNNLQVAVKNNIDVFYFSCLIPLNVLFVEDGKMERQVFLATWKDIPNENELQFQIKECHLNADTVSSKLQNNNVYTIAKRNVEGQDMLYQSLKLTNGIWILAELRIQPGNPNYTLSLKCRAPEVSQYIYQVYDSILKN

## AP180 DLL/DLF motifs (from UniProt Q05140)
Clathrin heavy chain TD [1]
  Kd: 200 µM

## AP180 peptide (from UniProt Q05140)
Clathrin heavy chain TD [2]
  Kd: 850 µM

## ARH peptide (from UniProt Q5SW96)
AP2 beta2 appendage [3]
  Kd: 2.4 µM

## beta-arrestin
AP2 beta2 appendage [4]
  Kd: 2.6 µM
